US20180244779A1 (KADMON, published 2018)

T1: mPD-1-Fc (murine, UniProt Q02242 25-167, limits assumed)
T1 construct: also called murine PD-1; not shown: Fc part
T1 sequence (looked up): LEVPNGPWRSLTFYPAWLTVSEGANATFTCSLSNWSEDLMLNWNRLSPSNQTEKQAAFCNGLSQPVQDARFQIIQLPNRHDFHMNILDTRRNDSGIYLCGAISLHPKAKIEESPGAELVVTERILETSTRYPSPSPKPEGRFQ

B1: R3A1 (antibody, V domains shown)
VH: EVQLLESGGGLVQPGGSLRLSCAASGFTFSRYHMMWVRQAPGKGLEWVSSIYPSGGYTYYADSVKGRFTISRDNSKNTLYLQMNSLRAEDTAVYYCAREYFSGPDYWGQGTLVTVSS
VL: DIQMTQSPSTLSASVGDRVTITCRASQKISRWLAWYQQTPGKAPKLLIYRASDLESGVPSRFSGSGSGTEFTLTISSLQPDDFATYYCQQYNTYPYTFGQGTKLEIKR
B2: R3A2 (antibody, V domains shown)
VH: EVQLLESGGGLVQPGGSLRLSCAASGFTFSWYSMLWVRQAPGKGLEWVSRIYPSGGFTYYADSVKGRFTISRDNSKNTLYLQMNSLRAEDTAVYYCARVIDIVGATGRLQHGMDVWGQGTTVTVSS
VL: QYELTQPPSVSVAPGQTAKITCGGNNIGSKSVNWYQQKTGQAPVLVVHDDSDRPSGIPERLSGSNSGNTATLTISRAEAGDEADYYCQVWDSVSDHYVFGTGTKVTVLG
B3: R4B3 (antibody, V domains shown)
VH: EVQLLESGGGLVQPGGSLRLSCAASGFTFSYYWMSWVRQAPGKGLEWVSYISPSGGMTKYADSVKGRFTISRDNSKNTLYLQMNSLRAEDTAVYYCASASYDYVWGIYHYDVFDIWGQGTMVTVSS
VL: DIQMTQSPSSVSASVGDRVTITCRASQGISSWLAWYQQKPGKAPKLLIYAASSLQSGVPSRFSGSGSGTDFTLTISSLQPEDFATYYCQQANSFPLTFGGGTKVEIKR
B4: R3D6 (antibody, V domains shown)
VH: EVQLLESGGGLVQPGGSLRLSCAASGFTFSDYNMAWVRQAPGKGLEWVSSIGPSGGNTHYADSVKGRFTISRDNSKNTLYLQMNSLRAEDMAVYYCARERVEYYYYGMDVWGKGTTVTVSS
VL: QSALTQAPSVSVAPGQTARITCGGDNIESLSVHWYQQKPGQAPVLVVYDDADRPSGTPERFSGSNSGNTATLTINRAEAGDEADYYCQVWDYSSDVVVFGGGTTLTVLG

Columns and labels:
hPD-1-Fc = molecular target: T2, hPD-1-Fc (human, UniProt Q15116 25-167, limits assumed); test: dose-response ELISA, immobilized hPD-1-Fc
T2 construct: It was immobilized on the ELISA plate; also called soluble human PD-1-Fc; not shown: Fc part
Description: (§1) The binding activity of the five antibodies was examined using dose-response ELISA. The serially diluted antibodies were added to immobilized hPD-1-Fc and detected by HRP conjugated anti-hIgG Fab specific antibody. The OD450 reading was plotted vs. log antibody concentration using GraphPad Prism6. EC50 was calculated by using “dose-response” (stimulation) variable slope (four parameters)” program. The antibodies were also added to immobilized mPD-1-Fc and other Fc-fusions to determine specificity for hPD-1-Fc and to immobilized anti-human IgG fc specific antibody (anti-hFc Ab) to check the accuracy of the concentration measurement.

mPD-1-Fc = molecular target: T1, mPD-1-Fc; test: dose-response ELISA, immobilized mPD-1-Fc
Description: as §1

T2 sequence (Q15116 25-167 limits assumed): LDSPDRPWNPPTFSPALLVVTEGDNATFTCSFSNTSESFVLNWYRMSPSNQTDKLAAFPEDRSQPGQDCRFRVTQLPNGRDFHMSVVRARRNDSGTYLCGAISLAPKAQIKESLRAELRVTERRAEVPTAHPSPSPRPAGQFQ

Row | Binder | binding result (hPD-1-Fc) | binding result (mPD-1-Fc)
1 | B1 | binds | 
2 | B2 | binds | 
3 | B3 | binds | binds
4 | B4 | binds | 
